Data on one substance can be found in paper PMC6200986.

For this data set, the system named is YlxR (Bacillus subtilis 168). In words: EMSA. The settings on record: 10 mM Tris-HCl pH 8.0, 100 mM KCl, 10 mM MgCl2, 1 mM DTT, 10% glycerol, 12 ul; 1% agarose gel in Tris-acetate-EDTA, loaded immediately after protein addition …. For orientation: Mobility shift assays separate free from complexed probe on a gel.

By Kd is commonly meant the equilibrium constant for the complex coming apart. Lower therefore signals a tighter complex. The substance pET28b(+) supercoiled came in with a Kd of 100 nM.
